Data reported in US20190309059A1 (SHANGHAI PHARMAEXPLORER, published 2019).

Tests used:
[1] = biological target: his-labeled human IL-13 (immunogen A) (human) (UniProt P35225); test: cell-based or functional assay
[2] = biological target: cynomolgus IL-13 (purchased from sino biological) (cynomolgus) (UniProt Q0PW92); test: ELISA, cynomolgus IL-13; antibody at 0.11 nM
[3] = biological target: cynomolgus IL-13 (purchased from sino biological) (cynomolgus) (UniProt Q0PW92); test: ELISA, cynomolgus IL-13; antibody at 0.53 nM
[4] = biological target: cynomolgus IL-13 (purchased from sino biological) (cynomolgus) (UniProt Q0PW92); test: ELISA, cynomolgus IL-13; antibody at 13.3 nM
[5] = biological target: cynomolgus IL-13 (purchased from sino biological) (cynomolgus) (UniProt Q0PW92); test: ELISA, cynomolgus IL-13; antibody at 2.67 nM
[6] = biological target: cynomolgus IL-13 (purchased from sino biological) (cynomolgus) (UniProt Q0PW92); test: ELISA, cynomolgus IL-13; antibody at 0.004 nM
[7] = biological target: cynomolgus IL-13 (purchased from sino biological) (cynomolgus) (UniProt Q0PW92); test: ELISA, cynomolgus IL-13; antibody at 0.021 nM
[8] = biological target: cynomolgus IL-13 (purchased from sino biological) (cynomolgus) (UniProt Q0PW92); test: ELISA, cynomolgus IL-13; antibody at 0.107 nM
[9] = biological target: his-labeled human IL-13 (immunogen A) (human) (UniProt P35225); test: ELISA, biotin-immunogen A; antibody at 2.67 nM
[10] = biological target: his-labeled human IL-13R130Q variant (human) (UniProt P35225); test: ELISA, IL-13R130Q variant; antibody at 2.67 nM
[11] = biological target: his-labeled human IL-13 (immunogen A) (human) (UniProt P35225); test: FACS blocking, biotin-IL-13 on IL-13Ra2 HEK293 cells; antibody at 0.01 nM
[12] = biological target: his-labeled human IL-13 (immunogen A) (human) (UniProt P35225); test: FACS blocking, biotin-IL-13 on IL-13Ra2 HEK293 cells; antibody at 0.05 nM
[13] = biological target: his-labeled human IL-13 (immunogen A) (human) (UniProt P35225); test: FACS blocking, biotin-IL-13 on IL-13Ra2 HEK293 cells; antibody at 0.27 nM
[14] = biological target: his-labeled human IL-13 (immunogen A) (human) (UniProt P35225); test: FACS blocking, biotin-IL-13 on IL-13Ra2 HEK293 cells; antibody at 1.33 nM
[15] = biological target: his-labeled human IL-13 (immunogen A) (human) (UniProt P35225); test: FACS blocking, biotin-IL-13 on IL-13Ra2 HEK293 cells; antibody at 6.67 nM
[16] = biological target: his-labeled human IL-13 (immunogen A) (human) (UniProt P35225); test: ELISA, biotin-immunogen A; antibody at 0.00 nM (as printed, 7th dilution)
[17] = biological target: his-labeled human IL-13 (immunogen A) (human) (UniProt P35225); test: FACS blocking, biotin-IL-13 on IL-13Ra2 HEK293 cells; antibody at 0.002 nM
[18] = biological target: his-labeled human IL-13 (immunogen A) (human) (UniProt P35225); test: FACS blocking, biotin-IL-13 on IL-13Ra2 HEK293 cells; antibody at 33.33 nM
[19] = biological target: his-labeled human IL-13 (immunogen A) (human) (UniProt P35225); test: FACS blocking, biotin-IL-13 on IL-13Ra2 HEK293 cells; antibody at 166.67 nM
[20] = biological target: his-labeled human IL-13 (immunogen A) (human) (UniProt P35225); test: FACS blocking, biotin-IL-13 on IL-13Ra1/IL-4Ra HEK293 cells; antibody at 0.01 nM
[21] = biological target: his-labeled human IL-13 (immunogen A) (human) (UniProt P35225); test: FACS blocking, biotin-IL-13 on IL-13Ra1/IL-4Ra HEK293 cells; antibody at 0.05 nM
[22] = biological target: his-labeled human IL-13 (immunogen A) (human) (UniProt P35225); test: FACS blocking, biotin-IL-13 on IL-13Ra1/IL-4Ra HEK293 cells; antibody at 0.27 nM
[23] = biological target: his-labeled human IL-13 (immunogen A) (human) (UniProt P35225); test: FACS blocking, biotin-IL-13 on IL-13Ra1/IL-4Ra HEK293 cells; antibody at 1.33 nM
[24] = biological target: his-labeled human IL-13 (immunogen A) (human) (UniProt P35225); test: FACS blocking, biotin-IL-13 on IL-13Ra1/IL-4Ra HEK293 cells; antibody at 6.67 nM
[25] = biological target: his-labeled human IL-13 (immunogen A) (human) (UniProt P35225); test: FACS blocking, biotin-IL-13 on IL-13Ra1/IL-4Ra HEK293 cells; antibody at 0.002 nM
[26] = biological target: his-labeled human IL-13 (immunogen A) (human) (UniProt P35225); test: FACS blocking, biotin-IL-13 on IL-13Ra1/IL-4Ra HEK293 cells; antibody at 33.33 nM
[27] = biological target: his-labeled human IL-13 (immunogen A) (human) (UniProt P35225); test: FACS blocking, biotin-IL-13 on IL-13Ra1/IL-4Ra HEK293 cells; antibody at 166.67 nM

Sequence of cynomolgus IL-13 (purchased from sino biological) (cynomolgus) (Q0PW92 entry or part of it): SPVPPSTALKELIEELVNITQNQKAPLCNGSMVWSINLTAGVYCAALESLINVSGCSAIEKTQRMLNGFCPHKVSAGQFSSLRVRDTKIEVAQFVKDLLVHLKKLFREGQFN
Sequence of his-labeled human IL-13R130Q variant (human) (P35225 other isoform, or with tags, fused parts or gaps mutant): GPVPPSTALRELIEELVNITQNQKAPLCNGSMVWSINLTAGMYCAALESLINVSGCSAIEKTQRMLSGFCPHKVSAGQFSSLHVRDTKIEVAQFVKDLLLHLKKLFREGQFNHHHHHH

IgG control (mouse IgG) (antibody) showed a Periostin (pg/mL), MRCS cells + IL-13 5 ng/mL; control antibody at 0.0002 nM [1] of 6350 pg/mL, a Periostin (pg/mL), MRCS cells + IL-13 5 ng/mL; control antibody at 0.001 nM [1] of 4760 pg/mL and a Periostin (pg/mL), MRCS cells + IL-13 5 ng/mL; control antibody at 0.004 nM [1] of 4290 pg/mL. For the same substance, the Periostin (pg/mL), MRCS cells + IL-13 5 ng/mL; control antibody at 0.021 nM [1] was 4010 pg/mL, the Periostin (pg/mL), MRCS cells + IL-13 5 ng/mL; control antibody at 0.11 nM [1] was 3830 pg/mL and the Periostin (pg/mL), MRCS cells + IL-13 5 ng/mL; control antibody at 0.53 nM [1] was 4920 pg/mL. The Periostin (pg/mL), MRCS cells + IL-13 5 ng/mL; control antibody at 2.67 nM [1] was 5740 pg/mL, the Periostin (pg/mL), MRCS cells + IL-13 5 ng/mL; control antibody at 13.3 nM [1] was 6240 pg/mL and the TARC (pg/mL), A549 cells + IL-13 5 ng/mL + TNFα; control antibody at 0.001 nM [1] was 2010 pg/mL. It also gave a TARC (pg/mL), A549 cells + IL-13 5 ng/mL + TNFα; control antibody at 0.004 nM [1] of 1720 pg/mL, a TARC (pg/mL), A549 cells + IL-13 5 ng/mL + TNFα; control antibody at 0.021 nM [1] of 1740 pg/mL and a TARC (pg/mL), A549 cells + IL-13 5 ng/mL + TNFα; control antibody at 0.11 nM [1] of 1650 pg/mL. It also gave a TARC (pg/mL), A549 cells + IL-13 5 ng/mL + TNFα; control antibody at 0.5 nM [1] of 1640 pg/mL, a TARC (pg/mL), A549 cells + IL-13 5 ng/mL + TNFα; control antibody at 2.7 nM [1] of 1720 pg/mL and a TARC (pg/mL), A549 cells + IL-13 5 ng/mL + TNFα; control antibody at 13.3 nM [1] of 1800 pg/mL. It also gave a TARC (pg/mL), A549 cells + IL-13 5 ng/mL + TNFα; control antibody at 66.7 nM [1] of 1870 pg/mL, a TARC (pg/mL), A549 cells + IL-13 + TNFα; control antibody at 0.001 nM [1] of 3120 pg/mL and a TARC (pg/mL), A549 cells + IL-13 + TNFα; control antibody at 0.001 nM (part 2, with hP4 4H12) [1] of 2920 pg/mL. The TARC (pg/mL), A549 cells + IL-13 + TNFα; control antibody at 0.004 nM [1] was 2980 pg/mL, the TARC (pg/mL), A549 cells + IL-13 + TNFα; control antibody at 0.004 nM (part 2, with hP4 4H12) [1] was 2560 pg/mL and the TARC (pg/mL), A549 cells + IL-13 + TNFα; control antibody at 0.021 nM [1] was 3000 pg/mL. It also gave a TARC (pg/mL), A549 cells + IL-13 + TNFα; control antibody at 0.021 nM (part 2, with hP4 4H12) [1] of 2580 pg/mL, a TARC (pg/mL), A549 cells + IL-13 + TNFα; control antibody at 0.11 nM [1] of 2780 pg/mL and a TARC (pg/mL), A549 cells + IL-13 + TNFα; control antibody at 0.11 nM (part 2, with hP4 4H12) [1] of 2570 pg/mL. It also gave a TARC (pg/mL), A549 cells + IL-13 + TNFα; control antibody at 0.5 nM (part 2, with hP4 4H12) [1] of 2580 pg/mL, a TARC (pg/mL), A549 cells + IL-13 + TNFα; control antibody at 0.53 nM [1] of 2840 pg/mL and a TARC (pg/mL), A549 cells + IL-13 + TNFα; control antibody at 2.67 nM [1] of 2720 pg/mL. For the same substance, the TARC (pg/mL), A549 cells + IL-13 + TNFα; control antibody at 2.7 nM (part 2, with hP4 4H12) [1] was 2790 pg/mL, the TARC (pg/mL), A549 cells + IL-13 + TNFα; control antibody at 13.3 nM [1] was 2820 pg/mL and the TARC (pg/mL), A549 cells + IL-13 + TNFα; control antibody at 13.3 nM (part 2, with hP4 4H12) [1] was 2870 pg/mL. For the same substance, the TARC (pg/mL), A549 cells + IL-13 + TNFα; control antibody at 66.7 nM [1] was 2700 pg/mL, the TARC (pg/mL), A549 cells + IL-13 + TNFα; control antibody at 66.7 nM (part 2, with hP4 4H12) [1] was 2920 pg/mL and the VCAM-1 fluorescence intensity, HUVEC + IL-13 0.5 ng/mL + TNFα; control antibody at 0.0002 nM [1] was 347. The VCAM-1 fluorescence intensity, HUVEC + IL-13 0.5 ng/mL + TNFα; control antibody at 0.001 nM [1] was 369, the VCAM-1 fluorescence intensity, HUVEC + IL-13 0.5 ng/mL + TNFα; control antibody at 0.004 nM [1] was 373 and the VCAM-1 fluorescence intensity, HUVEC + IL-13 0.5 ng/mL + TNFα; control antibody at 0.021 nM [1] was 369. It also gave a VCAM-1 fluorescence intensity, HUVEC + IL-13 0.5 ng/mL + TNFα; control antibody at 0.11 nM [1] of 340, a VCAM-1 fluorescence intensity, HUVEC + IL-13 0.5 ng/mL + TNFα; control antibody at 0.53 nM [1] of 302 and a VCAM-1 fluorescence intensity, HUVEC + IL-13 0.5 ng/mL + TNFα; control antibody at 2.67 nM [1] of 354. The VCAM-1 fluorescence intensity, HUVEC + IL-13 0.5 ng/mL + TNFα; control antibody at 13.3 nM [1] was 341, the OD450 nm [2] was 0.07 and the OD450 nm [3] was 0.09. The OD450 nm [4] was 0.1, the OD450 nm [5] was 0.06 and the OD450 nm [6] was 0.07. The OD450 nm [7] was 0.07, the OD450 nm [8] was 0.059 and the OD450 nm [9] was 0.08. For the same substance, the OD450 nm [10] was 0.06, the mean fluorescence intensity [11] was 83.2 and the mean fluorescence intensity [12] was 81.3. For the same substance, the mean fluorescence intensity [13] was 78.9, the mean fluorescence intensity [14] was 80.7 and the mean fluorescence intensity [15] was 77.2. The OD450 nm [16] was 0.07, the mean fluorescence intensity [17] was 79.3 and the mean fluorescence intensity [18] was 82.7. For the same substance, the mean fluorescence intensity [19] was 77, the mean fluorescence intensity [20] was 72.4 and the mean fluorescence intensity [21] was 68.9. For the same substance, the mean fluorescence intensity [22] was 67.9, the mean fluorescence intensity [23] was 37.5 and the mean fluorescence intensity [24] was 27.7. For the same substance, the mean fluorescence intensity [25] was 72, the mean fluorescence intensity [26] was 22.1 and the mean fluorescence intensity [27] was 17.1.
